Source: patent US20250049939A1, “NOVEL FLT3 ANTIBODIES AND ANTIBODY-DRUG-CONJUGATES BASED THEREON, THERAPEUTIC METHODS AND USES THEREOF IN COMBINATION WITH TYROSINE KINASE INHIBITORS” (TUBULIS GmbH, priority 2021, published 2025)

Tests used:
[1] = target: T1, FLT3 as expressed on FLT3 positive human leukemia and lymphoma cell lines (e.g. MOLM-13) (human) (UniProt P36888); assay: cell-based or functional assay
T1 sequence (looked up): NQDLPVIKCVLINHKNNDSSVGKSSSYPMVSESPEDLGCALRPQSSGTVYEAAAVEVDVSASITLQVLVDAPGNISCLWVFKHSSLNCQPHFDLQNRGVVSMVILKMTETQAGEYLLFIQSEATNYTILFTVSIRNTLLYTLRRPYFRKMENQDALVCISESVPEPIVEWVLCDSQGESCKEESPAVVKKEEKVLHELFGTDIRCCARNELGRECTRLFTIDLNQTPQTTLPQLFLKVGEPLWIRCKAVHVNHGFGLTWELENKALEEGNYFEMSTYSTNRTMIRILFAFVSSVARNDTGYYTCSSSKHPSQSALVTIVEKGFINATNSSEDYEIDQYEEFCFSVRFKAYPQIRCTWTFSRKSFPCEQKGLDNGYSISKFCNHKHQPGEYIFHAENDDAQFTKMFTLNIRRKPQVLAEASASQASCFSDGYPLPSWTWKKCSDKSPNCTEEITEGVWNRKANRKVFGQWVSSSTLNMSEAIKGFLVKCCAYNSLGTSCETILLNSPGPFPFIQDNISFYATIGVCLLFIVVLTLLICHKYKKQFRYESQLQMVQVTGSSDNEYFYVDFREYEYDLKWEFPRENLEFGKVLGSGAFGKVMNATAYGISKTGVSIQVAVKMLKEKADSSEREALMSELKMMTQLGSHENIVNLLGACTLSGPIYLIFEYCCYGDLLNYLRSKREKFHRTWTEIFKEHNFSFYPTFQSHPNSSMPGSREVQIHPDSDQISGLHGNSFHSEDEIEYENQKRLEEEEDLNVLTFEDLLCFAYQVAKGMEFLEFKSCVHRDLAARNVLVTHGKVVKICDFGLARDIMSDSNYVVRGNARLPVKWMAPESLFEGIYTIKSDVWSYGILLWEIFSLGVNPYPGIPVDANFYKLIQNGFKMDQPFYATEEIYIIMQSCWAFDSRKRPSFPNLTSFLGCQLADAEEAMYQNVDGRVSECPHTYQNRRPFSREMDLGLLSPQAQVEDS

[2] = target: recombinant human FLT3 protein (human) (UniProt P36888); assay: ELISA on recombinant human FLT3, normalized to BSA control

B1: deglycosylated 20D9-ADC (antibody, V domains shown)
VH: DVMLVESGGGLVQPGRSLKLSCVASGFTFNNYWMTWIRQAPGKGLEWIASITKTGGGTYYPDSVKGRFTISRDNAKSTLYLQMNSLRSEDTATYYCTTLQQLGVMDAWGQGASVTVSS
VL: DVQMTQSPSVLSASVGDRITLNCKASQNINKELNWYQQKLGEAPKLLIYNTNNLQTGIPSRFSGSGSGTDYTLTISSLQPEDVATYFCFQHKSWPLTFGSGTKLEIKR
B1 gave an IC50 of cytotoxicity in MOLM-13 cells, 96 h, resazurin [1] of 0.474 µg/mL.

B2: 19H5 chimeric anti-FLT3 monoclonal antibody (antibody, V domains shown)
VH: MVQPSQTLSLTCTVSGFSLTSYNVNWVRQPPGKGLEWIGAMWRGGGTDYNPALKSRLSISRDTSKSQVFLKMNRLQTEDTAIYFCTRGFGDYWGQGVMVTVSS
VL: DVQMTQSPSSMSASLGDRVTFTCQASQDIGNNLIYFQQKPGKSPRRMICCATNLAHGVPSRFSGSRSGSDYSLTLVSLESEDVADYHCLQYEHYPRTFGGGTKLELKR
B2 was tested, and the Kd [2] was 0.134 µg/mL.
